{
  "source": "patent US20240343815A1",
  "binders": {"B1": {"name": "anti-IL4Rα antibody benchmark (dupilumab) (antibody, INN chains, looked up, V domains shown)", "VH": "EVQLVESGGGLEQPGGSLRLSCAGSGFTFRDYAMTWVRQAPGKGLEWVSSISGSGGNTYYADSVKGRFTISRDNSKNTLYLQMNSLRAEDTAVYYCAKDRLSITIRPRYYGLDVWGQGTTVTVSS", "VL": "DIVMTQSPLSLPVTPGEPASISCRSSQSLLYSIGYNYLDWYLQKSGQSPQLLIYLGSNRASGVPDRFSGSGSGTDFTLKISRVEAEDVGFYYCMQALQTPYTFGQGTKLEIKR"}},
  "key": {"[1]": {"molecular_target": "human IL4Rα expressed on the surface of 293F-IL4Rα cells (human) (UniProt P24394)", "assay": "flow cytometry on 293F-IL4Rα cells"}, "[2]": {"molecular_target": "recombinant human IL4Rα-his protein (human) (UniProt P24394)", "assay": "IL4-IL4Rα blocking ELISA, IL4Rα-his coated, biotinylated IL4"}, "[3]": {"molecular_target": "recombinant human IL4Rα-his protein (human) (UniProt P24394)", "assay": "SPR Biacore, mAb captured, IL4Rα-his analyte"}, "[4]": {"molecular_target": "recombinant human IL4Rα-his protein (human) (UniProt P24394)", "assay": "SPR Biacore, mAb captured, IL4Rα-his analyte", "remark": "listed apart in the source"}, "[5]": {"molecular_target": "recombinant human IL4Rα-his protein (human) (UniProt P24394)", "assay": "benchmark blocking ELISA, competitor benchmark coated (self-competition), biotinylated IL4Rα-his"}, "[6]": {"molecular_target": "recombinant human IL4Rα-his protein (human) (UniProt P24394)", "assay": "SPR Biacore, mAb captured, IL4Rα-his analyte", "remark": "listed apart in the source"}, "[7]": {"molecular_target": "recombinant human IL4Rα-his protein (human) (UniProt P24394)", "assay": "IL4-IL4Rα blocking ELISA, IL4Rα-his coated, biotinylated IL4", "remark": "listed apart in the source"}, "[8]": {"molecular_target": "marmoset monkey IL4Rα-his protein (marmoset monkey)", "sequence (chain, as listed by the source limits assumed)": "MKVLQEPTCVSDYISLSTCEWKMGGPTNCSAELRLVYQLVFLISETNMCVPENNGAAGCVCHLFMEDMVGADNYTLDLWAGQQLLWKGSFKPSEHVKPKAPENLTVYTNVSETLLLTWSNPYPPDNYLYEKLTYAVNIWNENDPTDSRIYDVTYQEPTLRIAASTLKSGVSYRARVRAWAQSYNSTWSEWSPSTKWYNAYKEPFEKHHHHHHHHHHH", "assay": "indirect ELISA, marmoset IL4Rα-his coated"}, "[9]": {"molecular_target": "cynomolgus monkey IL4Rα-his protein (cynomolgus monkey)", "sequence (chain, as listed by the source)": "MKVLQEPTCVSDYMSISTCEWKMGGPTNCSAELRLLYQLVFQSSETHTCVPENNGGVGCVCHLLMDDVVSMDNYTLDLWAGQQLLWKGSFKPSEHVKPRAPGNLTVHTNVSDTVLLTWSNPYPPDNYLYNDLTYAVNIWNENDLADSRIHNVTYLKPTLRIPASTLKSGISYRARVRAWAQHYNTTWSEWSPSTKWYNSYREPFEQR", "assay": "indirect ELISA, cynomolgus IL4Rα-his coated"}, "[10]": {"molecular_target": "human IL4Rα on HEK293T-IL4Rα-STAT6-STAT6LUC-LB2 cells (human) (UniProt P24394)", "assay": "cell-based or functional assay"}, "[11]": {"molecular_target": "human IL4Rα on HEK293T-IL4Rα-STAT6-STAT6LUC-LB2 cells (human) (UniProt P24394)", "assay": "cell-based or functional assay", "remark": "listed apart in the source"}, "[12]": {"molecular_target": "human IL4Rα expressed on the surface of 293F-IL4Rα cells (human) (UniProt P24394)", "assay": "cell-based ligand blocking FACS, 293F-IL4Rα cells, biotinylated IL4"}, "[13]": {"molecular_target": "recombinant human IL4Rα-his protein (human) (UniProt P24394)", "assay": "capture ELISA, mAb captured by anti-human IgG, biotinylated IL4Rα-his"}, "[14]": {"molecular_target": "human IL4Rα expressed on the surface of 293F-IL4Rα cells (human) (UniProt P24394)", "assay": "flow cytometry on 293F-IL4Rα cells", "remark": "listed apart in the source"}},
  "note": "Where two headings read alike, the source gives them in different places.",
  "data": [
    {"binder": "B1", "values": [
      {"measurement": "EC50", "setting": "[1]", "value": 0.46, "unit": "nM"},
      {"measurement": "IC50", "setting": "[2]", "value": 2.06, "unit": "nM"},
      {"measurement": "Kd", "setting": "[3]", "value": 0.746, "unit": "nM"},
      {"measurement": "Kd", "setting": "[4]", "value": 0.466, "unit": "nM"},
      {"measurement": "IC50", "setting": "[5]", "value": 0.19, "unit": "nM"},
      {"measurement": "Dissociation (%)", "setting": "[6]", "value": -2.64, "unit": "%"},
      {"measurement": "End (RU)", "setting": "[6]", "value": 70, "unit": "RU"},
      {"measurement": "Kd", "setting": "[6]", "value": 0.188, "unit": "nM"},
      {"measurement": "Start (RU)", "setting": "[6]", "value": 71.9, "unit": "RU"},
      {"measurement": "koff", "setting": "[6]", "value": "6.25e-05", "unit": "s⁻¹"},
      {"measurement": "kon", "setting": "[6]", "value": 333000, "unit": "M⁻¹ s⁻¹"},
      {"measurement": "IC50", "setting": "[7]", "value": 1.74, "unit": "nM"},
      {"measurement": "EC50", "setting": "[8]", "value": 1.72, "unit": "nM"},
      {"measurement": "EC50", "setting": "[9]", "value": 0.67, "unit": "nM"},
      {"measurement": "Inhibition of IL4-induced STAT6 phosphorylation (IC50, nM)", "setting": "[10]", "value": 0.37, "unit": "nM"},
      {"measurement": "Inhibition of IL13-induced STAT6 phosphorylation (IC50, nM)", "setting": "[10]", "value": 0.48, "unit": "nM"},
      {"measurement": "Inhibition of IL4-induced STAT6 phosphorylation (IC50, nM)", "setting": "[11]", "value": 0.7, "unit": "nM"},
      {"measurement": "Inhibition of IL13-induced STAT6 phosphorylation (IC50, nM)", "setting": "[11]", "value": 0.84, "unit": "nM"},
      {"measurement": "IC50", "setting": "[12]", "value": 0.42, "unit": "nM"},
      {"measurement": "EC50", "setting": "[13]", "value": 0.05, "unit": "nM"},
      {"measurement": "EC50", "setting": "[14]", "value": 0.4, "unit": "nM"}
    ]}
  ]
}
